{"source": "patent US20120328512A1", "about": "(BRACCO IMAGING S P A, published 2012)", "binders": {"B1": {"name": "Seq017-PL1 (peptide)", "peptide": "Ac-SGSG[AEEA]WQPCPWESWTFCWDPGGGK-NH2", "modifications": "disulfide 9-17; not fully specified (residue 24); printed as Ac-SGSGJWQPC*PWESWTFC*WDPGGGK(DSPE-PG4-Glut)-NH2"}, "B2": {"name": "Seq024-PL1 (peptide)", "peptide": "Ac-SGSGSGSGWQPCPWESWTFCWDPGGGK-NH2", "modifications": "disulfide 12-20; not fully specified (residue 27); printed as Ac-SGSGSGSGWQPC*PWESWTFC*WDPGGGK(DSPE-PG4-Glut)-NH2"}, "B3": {"name": "Seq023-PL1 (peptide)", "peptide": "H-RWQPCPWESWTFCWDPGGGK-NH2", "modifications": "disulfide 5-13; not fully specified (residue 20); printed as RWQPC*PWESWTFC*WDPGGGK(DSPE-PG4-Glut)-NH2"}, "B4": {"name": "Seq016-PL1 (peptide)", "peptide": "Ac-GWQPCPWESWTFCWDPGGGK-NH2", "modifications": "disulfide 5-13; not fully specified (residue 20); printed as Ac-GWQPC*PWESWTFC*WDPGGGK(DSPE-PG4-Glut)-NH2"}, "B5": {"name": "Seq000 (peptide)", "peptide": "WQPCPWESWTFCWDPGGGK", "modifications": "N-terminal acetyl (Ac-); C-terminal amide (-NH2); disulfide between the two C* cysteines", "notes": "also called comparative peptide"}}, "note": "Bridge positions count the residues as written; N and C are the ends. Square brackets hold non-standard residues; d marks the D form. AEEA = NCCOCCOCC(=O)O"}
{"target": "T1, fibrin (human fibrinogen clotted with human thrombin on glass coverslips) (human, UniProt P02671 36-629; P02675 45-491; P02679 27-437, limits assumed)", "T1 construct": "also called fibrin-coated coverslips", "T1 sequence (looked up) 1": "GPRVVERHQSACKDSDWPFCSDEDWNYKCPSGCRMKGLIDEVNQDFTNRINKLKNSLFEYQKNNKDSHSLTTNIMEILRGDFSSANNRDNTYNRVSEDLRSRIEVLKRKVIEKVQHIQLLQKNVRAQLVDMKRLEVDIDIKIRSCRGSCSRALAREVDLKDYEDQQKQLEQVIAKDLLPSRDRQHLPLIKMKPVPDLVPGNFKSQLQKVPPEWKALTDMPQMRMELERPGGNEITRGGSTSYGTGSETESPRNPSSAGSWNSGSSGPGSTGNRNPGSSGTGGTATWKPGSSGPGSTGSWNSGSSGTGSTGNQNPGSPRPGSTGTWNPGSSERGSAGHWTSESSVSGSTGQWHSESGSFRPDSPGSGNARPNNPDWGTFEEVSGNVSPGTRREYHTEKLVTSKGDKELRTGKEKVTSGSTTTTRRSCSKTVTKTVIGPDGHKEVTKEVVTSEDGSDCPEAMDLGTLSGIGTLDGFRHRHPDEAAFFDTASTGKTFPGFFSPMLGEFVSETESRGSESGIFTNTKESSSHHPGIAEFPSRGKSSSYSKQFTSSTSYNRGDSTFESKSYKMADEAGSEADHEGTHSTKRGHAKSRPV", "T1 sequence (looked up) 2": "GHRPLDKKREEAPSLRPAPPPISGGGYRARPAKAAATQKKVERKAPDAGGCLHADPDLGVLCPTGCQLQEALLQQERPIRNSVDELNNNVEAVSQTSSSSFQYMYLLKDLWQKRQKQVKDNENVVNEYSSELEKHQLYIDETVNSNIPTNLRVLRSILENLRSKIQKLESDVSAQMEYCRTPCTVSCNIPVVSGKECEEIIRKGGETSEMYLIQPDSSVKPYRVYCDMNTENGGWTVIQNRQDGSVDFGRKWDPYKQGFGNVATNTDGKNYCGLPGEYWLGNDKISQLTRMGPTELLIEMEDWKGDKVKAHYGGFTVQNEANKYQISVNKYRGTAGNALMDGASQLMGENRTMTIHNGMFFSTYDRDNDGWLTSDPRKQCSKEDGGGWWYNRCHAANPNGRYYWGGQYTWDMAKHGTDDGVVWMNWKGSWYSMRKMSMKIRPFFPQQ", "T1 sequence (looked up) 3": "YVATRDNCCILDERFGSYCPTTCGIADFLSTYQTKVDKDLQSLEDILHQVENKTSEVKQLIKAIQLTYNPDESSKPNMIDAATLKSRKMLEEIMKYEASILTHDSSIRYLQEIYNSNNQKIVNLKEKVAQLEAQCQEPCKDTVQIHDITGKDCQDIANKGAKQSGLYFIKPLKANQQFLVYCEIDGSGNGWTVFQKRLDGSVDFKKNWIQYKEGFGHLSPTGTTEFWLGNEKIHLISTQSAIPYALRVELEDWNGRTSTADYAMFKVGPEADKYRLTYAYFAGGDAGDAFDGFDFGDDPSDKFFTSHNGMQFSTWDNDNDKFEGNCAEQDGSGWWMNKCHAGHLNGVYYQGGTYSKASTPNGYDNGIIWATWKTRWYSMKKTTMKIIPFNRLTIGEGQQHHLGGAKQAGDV", "assay": "flow chamber test of targeted microvesicles on fibrin-coated coverslips", "method": "Five mL of a solution of BSA 1% w/v in PBS pH 7.4 were added into a 60 mm Petri Dish containing one coverslip, and incubated at 37° C. for 15 min. Then the coverslip was washed three times with 5 ml of Tween 80/PBS (0.1%, v:v). Twenty five μL of human thrombin solution at 5 U/mL were added per mL of human fibrinogen solution (0.5 mg/mL in 50 mM sodium phosphate, NaCl 280 mM, pH 7.4) and delicately mixed. Five mL of this solution were immediately distributed in each Petri dish. The coverslips were incubated for one hour at 37° C. and then dried overnight at 45° C.\nBinding studies of targeted microvesicles were carried out using a parallel-plate flow chamber (FCS2, Bioptech Inc., Butler, Pa., USA) with a chamber gasket of 0.25 mm in thickness, with a customized adapter for upside-down chamber inversion. The coated coverslip was inserted as a plate of the flow chamber. Gas-filled Microvesicles (5×10⁶ bubbles/mL in 50% human plasma in PBS) were drawn through the flow chamber using an adjustable infusion pump (Auto Syringe® AS50 Infusion Pump, Baxter, Deerfield, Ill., USA) with a 60 mL syringe (Terumo). The pump flow rate was adjusted to 1 mL/min to obtain the desired shear rate of about 114 s⁻¹. After 10 minutes, the flow was stopped and pictures were taken randomly on different positions on the coverslip (on surfaces of about 0.025 mm²) using a 40× objective and a CCD monochrome camera (F-View II, Soft Imaging Systems, Germany) connected to an inverted Olympus IX 50 microscope. The number of microvesicles on each picture was determined, averaged with respect to the total number of pictures and the obtained value was then divided by ten (to obtain the “slope”, i.e. the average amount of bound microvesicles per minute)."}
{"binder": "B1", "binding result": "binds"}
{"binder": "B2", "binding result": "binds"}
{"binder": "B3", "binding result": "binds"}
{"binder": "B4", "binding result": "binds"}
{"binder": "Ac-WQPCPAESWTFCWDPGSAGSK-NH2 (disulfide 4-12; not fully specified (residue 21), Linker GSAGSK)", "note": "[Seq005-PL4]", "binding result": "binds"}
{"binder": "Ac-WQPCPAESWTFCWDPGAGSGK-NH2 (disulfide 4-12; not fully specified (residue 21), Linker GAGSGK)", "note": "[Seq005-PL5]", "binding result": "binds"}
{"target": "T2, DDE", "T2 chain 1": "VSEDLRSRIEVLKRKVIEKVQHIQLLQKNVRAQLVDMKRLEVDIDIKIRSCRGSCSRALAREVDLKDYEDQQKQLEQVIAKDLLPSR", "T2 chain 2": "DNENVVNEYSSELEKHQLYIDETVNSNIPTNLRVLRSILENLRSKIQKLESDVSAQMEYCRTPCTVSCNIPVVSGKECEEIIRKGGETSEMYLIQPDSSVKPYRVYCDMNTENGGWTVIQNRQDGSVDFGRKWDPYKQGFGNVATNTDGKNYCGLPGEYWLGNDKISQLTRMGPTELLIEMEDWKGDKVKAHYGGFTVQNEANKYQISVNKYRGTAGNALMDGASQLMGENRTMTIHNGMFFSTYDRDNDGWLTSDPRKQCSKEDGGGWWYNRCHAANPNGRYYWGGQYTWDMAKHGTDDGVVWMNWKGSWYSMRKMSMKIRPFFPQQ", "T2 chain 3": "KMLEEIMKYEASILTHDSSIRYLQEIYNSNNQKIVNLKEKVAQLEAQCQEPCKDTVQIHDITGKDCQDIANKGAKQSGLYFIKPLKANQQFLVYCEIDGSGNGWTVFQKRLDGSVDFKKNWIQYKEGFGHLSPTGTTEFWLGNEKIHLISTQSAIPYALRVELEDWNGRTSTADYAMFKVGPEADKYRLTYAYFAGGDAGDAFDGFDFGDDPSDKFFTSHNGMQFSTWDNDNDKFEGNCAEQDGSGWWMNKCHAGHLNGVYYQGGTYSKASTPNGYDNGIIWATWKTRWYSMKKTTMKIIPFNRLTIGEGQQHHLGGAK", "T2 chain 4": "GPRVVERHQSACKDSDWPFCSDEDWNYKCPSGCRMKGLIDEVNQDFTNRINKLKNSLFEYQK", "T2 chain 5": "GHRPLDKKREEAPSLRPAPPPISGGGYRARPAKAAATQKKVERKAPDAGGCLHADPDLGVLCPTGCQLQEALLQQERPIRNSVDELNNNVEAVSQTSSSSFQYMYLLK", "T2 chain 6": "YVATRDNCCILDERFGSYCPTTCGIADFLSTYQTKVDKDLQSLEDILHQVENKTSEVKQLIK", "assay": "competition fluorescence polarization on DDE; this is the reference peptide, 1 by definition"}
{"binder": "B5", "Rel IC50": "1 ratio to the reference peptide"}
